Key:
GroEL CP376-RW (E. coli) [1] = target: GroEL CP376-RW (E. coli) (UniProt P0A6F5); assay: SEC; gel filtration profiles observed during purification (AKTA FPLC, 4°C); data not shown
GroEL CP376-RW (E. coli) [2] = target: GroEL CP376-RW (E. coli) (UniProt P0A6F5); assay: negative-stain electron microscopy; GroEL alone, 0.25 mg/ml in 50 mM triethanolamine pH 7.5, 20 mM MgCl2, 50 mM KCl; 1% uranyl acetate
GroEL CP376 (E. coli) = GroEL CP376 (E. coli) (UniProt P0A6F5); assay: SEC; gel filtration profiles observed during purification (AKTA FPLC, 4°C); data not shown

| stoichiometry N (GroEL CP376-RW (E. coli) [1]) | stoichiometry N (GroEL CP376-RW (E. coli) [2]) | stoichiometry N (GroEL CP376 (E. coli)) | Substance |
| --- | --- | --- | --- |
| 14 | 14 |  | GroEL CP376-RW (from UniProt P0A6F5 376-548; P0A6F5 2-374) |
|  |  | 14 | GroEL CP376 (from UniProt P0A6F5 376-548; P0A6F5 2-374) |
